Test results reported in patent US20160075790A1 (Bristol-Myers Squibb, published 2016).
Values joined by “and” are separate entries in the source; they are usually repeats but may differ in a detail not shown here. Identical values can stand only once. Like-named read-outs stand apart in the source and are kept apart here.

T1: human CD40L, membrane-bound on cells (human, UniProt P29965 1-261)
T1 sequence: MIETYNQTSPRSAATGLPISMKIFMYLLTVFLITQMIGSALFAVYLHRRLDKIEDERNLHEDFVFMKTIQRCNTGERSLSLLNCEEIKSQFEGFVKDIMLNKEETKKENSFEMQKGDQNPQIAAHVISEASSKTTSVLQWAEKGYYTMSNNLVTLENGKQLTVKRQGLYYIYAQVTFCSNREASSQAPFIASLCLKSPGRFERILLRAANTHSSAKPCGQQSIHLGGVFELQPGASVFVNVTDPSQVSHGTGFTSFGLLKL

T2: human isoleucine zipper-CD40L (IZ-hCD40L) (human, UniProt P29965 113-261)
T2 sequence: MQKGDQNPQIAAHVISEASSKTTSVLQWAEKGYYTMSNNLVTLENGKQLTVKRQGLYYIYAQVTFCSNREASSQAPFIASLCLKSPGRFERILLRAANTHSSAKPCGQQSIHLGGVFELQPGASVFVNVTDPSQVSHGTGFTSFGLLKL

T3: human CD40L monomer triple mutant (T211E, S222Y, H224K, [108-261]) (human, UniProt P29965 108-261)
T3 construct: also called monomeric human CD40L
T3 chain: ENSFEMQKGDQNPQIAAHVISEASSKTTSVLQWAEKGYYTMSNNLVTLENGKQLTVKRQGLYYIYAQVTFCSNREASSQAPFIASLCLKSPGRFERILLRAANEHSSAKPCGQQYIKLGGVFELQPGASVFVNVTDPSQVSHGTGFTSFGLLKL

B1: 2h572-635 Fc (Fc fusion, not shown: a dimerising Fc or GST)
chain: EVQLLESGGGLVQPGGSLRLSCAASGFTFNWELMGWARQAPGKGLEWVSGIEGPGDVTYYADSVKGRFTISRDNSKNTLYLQMNSLRAEDTAVYYCVKVGKDSKSDYRGQGTLVTVSS
B2: 2h572-619-N297Qlong Fc (Fc fusion, not shown: a dimerising Fc or GST)
chain: EVQLLESGGGLVQPGGSLRLSCAASGFTFNWQLMGWVRQAPGKGLEWVSGIEGPGDVTYYADSVKGRFTISRDNSKNTLYLQMNSLRAEDTAVYYCVKVGKDSRSDYRGQGTLVTVSS
B3: 2h572-633-CT-Fc SP5 (Fc fusion, not shown: a dimerising Fc or GST)
chain: EVQLLESGGGLVQPGGSLRLSCAASGFTFNWELMGWARQAPGKGLEWVSGIEGPGDVTYYADSVKGRFTISRDNSKNTLYLQMNSLRAEDTAVYYCVKVGKDAKSDYRGQGTLVTVSS
B4: 2h572-619-Ctshort Fc (Fc fusion, not shown: a dimerising Fc or GST)
chain: EVQLLESGGGLVQPGGSLRLSCAASGFTFNWQLMGWVRQAPGKGLEWVSGIEGPGDVTYYADSVKGRFTISRDNSKNTLYLQMNSLRAEDTAVYYCVKVGKDSRSDYRGQGTLVTVSS
B5: 2h572-619-N297Qshort Fc (Fc fusion, not shown: a dimerising Fc or GST)
chain: EVQLLESGGGLVQPGGSLRLSCAASGFTFNWQLMGWVRQAPGKGLEWVSGIEGPGDVTYYADSVKGRFTISRDNSKNTLYLQMNSLRAEDTAVYYCVKVGKDSRSDYRGQGTLVTVSS
B6: 2h572-608-N297Qshort Fc (Fc fusion, not shown: a dimerising Fc or GST)
chain: EVQLLESGGGLVQPGGSLRLSCAASGFTFNWELMGWARQAPGKGLEWVSGIEGPGDVTYYADSVKGRFTISRDNSKNTLYLQMNSLRAEDTAVYYCVKVGKESNSDYRGQGTLVTVSS
B7: 2h572-635-CT Long Fc (Fc fusion)
chain: EVQLLESGGGLVQPGGSLRLSCAASGFTFNWELMGWARQAPGKGLEWVSGIEGPGDVTYYADSVKGRFTISRDNSKNTLYLQMNSLRAEDTAVYYCVKVGKDSKSDYRGQGTLVTVSS
notes: not shown: linker and CT Long Fc (CT-L2)
B8: 2h572-608-CT Long Fc (Fc fusion)
chain: EVQLLESGGGLVQPGGSLRLSCAASGFTFNWELMGWARQAPGKGLEWVSGIEGPGDVTYYADSVKGRFTISRDNSKNTLYLQMNSLRAEDTAVYYCVKVGKESNSDYRGQGTLVTVSS
notes: as for B7
B9: 2h572-6-CT Long Fc (Fc fusion)
chain: EVQLLESGGGLVQPGGSLRLSCAASGFTFNWQLMGWVRQAPGKGLEWVSGIEGPGDVTYYADSVKGRFTISRDNSKNTLYLQMNSLRAEDTAVYYCVKVGKESNSDYRGQGTLVTVSS
notes: as for B7
B10: 2h572-614-CT Long Fc (Fc fusion)
chain: EVQLLESGGGLVQPGGSLRLSCAASGFTFNWQLMGWVRQAPGKGLEWVSGIEGPGDVTYYADSVKGRFTISRDNSKNTLYLQMNSLRAEDTAVYYCVKVGKDAKSDYRGQGTLVTVSS
notes: as for B7
B11: 2h572-633-CT Long Fc (Fc fusion)
chain: EVQLLESGGGLVQPGGSLRLSCAASGFTFNWELMGWARQAPGKGLEWVSGIEGPGDVTYYADSVKGRFTISRDNSKNTLYLQMNSLRAEDTAVYYCVKVGKDAKSDYRGQGTLVTVSS
notes: as for B7
B12: 2h572-634-CT Long Fc (Fc fusion)
chain: EVQLLESGGGLVQPGGSLRLSCAASGFTFNWELMGWARQAPGKGLEWVSGIEGPGDVTYYADSVKGRFTISRDNSKNTLYLQMNSLRAEDTAVYYCVKVGKDSRSDYRGQGTLVTVSS
notes: as for B7
B13: 2h572-619-Ctlong Fc (Fc fusion)
chain: EVQLLESGGGLVQPGGSLRLSCAASGFTFNWQLMGWVRQAPGKGLEWVSGIEGPGDVTYYADSVKGRFTISRDNSKNTLYLQMNSLRAEDTAVYYCVKVGKDSRSDYRGQGTLVTVSS
notes: as for B7
B14: 2h719-2 Fc (Fc fusion, not shown: a dimerising Fc or GST)
chain: EVQLLESGGGLVQPGGSLRLSCAASGFTFKRYEMMWVRQAPGKGLEWVSSISSDGSFTYYADSVKGRFTISRDNSKNTLYLQMNSLRAEDTAVYYCAEPFTEFDYWGHGTLVTVSS
B15: 2h719-202-N297Qshort Fc (Fc fusion, not shown: a dimerising Fc or GST)
chain: EVQLLESGGGLVQPGGSLRLSCAASGFTFKKYEMMWVRQAPGKGLEWVSSISSDGSFTYYADSVKGRFTISRDNSKNTLYLQMNSLRAEDTAVYYCAEPFTEFDYWGHGTLVTVSS

Assays:
[1] = target: mouse CD40L (mouse) (UniProt P27548); experiment: cell-based or functional assay
Sequence of mouse CD40L (mouse) (P27548 112-260 limits assumed): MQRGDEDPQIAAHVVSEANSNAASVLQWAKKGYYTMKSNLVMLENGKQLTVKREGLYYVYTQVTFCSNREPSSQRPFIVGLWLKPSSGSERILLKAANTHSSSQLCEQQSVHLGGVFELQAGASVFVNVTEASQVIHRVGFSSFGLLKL

[2] = target: T1, human CD40L, membrane-bound on cells; experiment: cell-based or functional assay
[3] = target: human isoleucine zipper-CD40L (IZ-hCD40L) (human) (UniProt P29965); experiment: cell-based or functional assay
[4] = target: T1, human CD40L, membrane-bound on cells; experiment: cell-based or functional assay; remark: listed apart in the source
[5] = target: T2, human isoleucine zipper-CD40L …; experiment: cell-based or functional assay
[6] = target: T3, human CD40L monomer triple mutant …; experiment: SPR; dAb-CT-long captured on anti-human IgG Fc surface, CD40L monomer as analyte

| Molecule | CHO-hCD40L-driven DC Activation IL-12 EC50 [2] [nM] | CHO-hCD40L-driven Human B Cell Proliferation EC50 [2] [nM] | T-B cell MLR EC50 [2] | T-B cell MLR IL-6 EC50 [2] | hIZCD40L-driven Human B Cell Proliferation EC50 [3] [nM] | CHO-hCD40L-driven DC Activation IL-12 EC50 [4] [nM] | CHO-hCD40L-driven Human B Cell Proliferation EC50 [4] [nM] | T-B cell MLR EC50 [4] [nM] | T-B cell MLR IL-6 EC50 [4] [nM] | hIZCD40L-driven Human B Cell Proliferation EC50 [5] [nM] | binding result [6] | other results |
| --- | --- | --- | --- | --- | --- | --- | --- | --- | --- | --- | --- | --- |
| MR-1 (antibody) |  |  |  |  |  |  |  |  |  |  |  | CHO-CD40L B cell Assay EC50 [1]: 0.6 nM; CHO-CD40L DC Assay IL-6 EC50 [1]: 0.6 nM; Trimer B cell Assay EC50 [1]: 1.7 nM |
| B1 | 0.445 | 2.5 | 0.16 nM | 0.11 nM | 2 |  |  |  |  |  |  |  |
| B2 | 1.1 | 2 | 0.48 nM and 0.474 nM | 0.22 nM and 0.11 nM | 0.98 |  |  |  |  |  |  |  |
| B3 | 2.3 | 1 | 0.161 nM | 0.13 nM | 5 |  |  |  |  |  |  | CHO-hCD40L-driven DC Activation IL-6 EC50 [2]: 1.5 nM; CHO-hCD40L-driven DC Activation TNF EC50 [2]: 2.9 nM |
| B4 | 1.8 | 2 | 0.4 nM | 0.3 nM | 1.5 |  |  |  |  |  |  |  |
| B5 | 1.2 | 1 | 0.226 nM and 0.216 nM | 0.1 nM | 0.9 |  |  |  |  |  |  |  |
| B6 | 0.93 | 2 |  |  | 1 |  |  |  |  |  |  |  |
| B7 |  |  |  |  |  | 1.6 | 2 | 0.149 | 0.13 | 3 | no binding |  |
| B8 |  |  |  |  |  | 1.6 | 2 | 0.468 | 0.38 | 2 | no binding |  |
| B9 |  |  |  |  |  | 3 | 6 | 13.6 | 8.1 | 1 | no binding |  |
| B10 |  |  |  |  |  | 1.4 | 2 | 0.283 | 0.25 | 2 | no binding |  |
| B11 |  |  |  |  |  | 1.9 | 1 | 0.174 | 0.13 | 3 | no binding | CHO-hCD40L-driven DC Activation IL-6 EC50 [4]: 1.3 nM; CHO-hCD40L-driven DC Activation IL-23 EC50 [4]: 1.2 nM; CHO-hCD40L-driven DC Activation TNF EC50 [4]: 1.7 nM |
| B12 |  |  |  |  |  | 1.5 | 1 | 0.162 | 0.13 | 2 | no binding |  |
| B13 |  |  |  |  |  | 1.4 | 2 | 0.72 | 0.43 | 1.6 | no binding | CHO-hCD40L-driven DC Activation IL-6 EC50 [4]: 1.5 nM; CHO-hCD40L-driven DC Activation IL-23 EC50 [4]: 1.5 nM; CHO-hCD40L-driven DC Activation TNF EC50 [4]: 2 nM |
| B14 | 0.13 | 0.7 | 6 nM |  | 1 |  |  |  |  |  |  |  |
| B15 | 0.66 | 1.7 |  |  | 1.8 |  |  |  |  |  |  |  |
